molecular target: Fibrin (human plasma clot) (Homo sapiens, UniProt P02671-2;P02675;P02679-2 P02671-2:36-644,P02675:45-491,P02679-2:27-437); test: competition; homogenized plasma clot, Scatchard high-affinity component; settings: tags: clot from recalcified plasma, complex target; chain copies: 2
Method: The two best binders in the PE model which had the lowest affinity for fibrinogen were pursued. Both of these clones resided in Motif II. Clone 69 (SEQ ID NO: 55) was analyzed for binding in vitro homogenized clot. By adding a fixed amount of radiolabeled clone 69 (2 nM) to a fixed amount of clot (200 μliters plasma equivalent) with increasing amount of non-radiolabeled ligand, binding could be quantitated. Analyzing data in a Scatchard format yield a two-component curve with high and low affinity binding components. […] These sites were saturable. […] As such it appears that the binding of a specific ligand to clots is specific and stable.

Fibrin (human plasma clot), sequence (P02671 other isoform, or with tags, fused parts or gaps, chain 1 of 3): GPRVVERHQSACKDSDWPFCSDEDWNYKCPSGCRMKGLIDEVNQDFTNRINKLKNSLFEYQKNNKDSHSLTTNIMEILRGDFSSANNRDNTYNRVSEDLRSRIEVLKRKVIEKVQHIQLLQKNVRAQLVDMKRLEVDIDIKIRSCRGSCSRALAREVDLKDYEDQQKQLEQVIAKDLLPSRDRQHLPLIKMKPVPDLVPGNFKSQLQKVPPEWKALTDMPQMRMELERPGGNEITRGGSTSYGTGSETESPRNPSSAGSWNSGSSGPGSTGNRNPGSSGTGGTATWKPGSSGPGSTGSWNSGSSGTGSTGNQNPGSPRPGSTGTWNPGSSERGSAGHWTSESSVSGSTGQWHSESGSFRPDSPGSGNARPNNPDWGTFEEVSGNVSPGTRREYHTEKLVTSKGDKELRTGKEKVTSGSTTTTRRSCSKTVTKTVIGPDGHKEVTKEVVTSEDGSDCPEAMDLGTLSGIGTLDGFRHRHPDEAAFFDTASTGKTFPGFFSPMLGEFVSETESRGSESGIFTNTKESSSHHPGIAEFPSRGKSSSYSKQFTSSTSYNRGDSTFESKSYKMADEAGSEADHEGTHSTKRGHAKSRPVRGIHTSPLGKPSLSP
Fibrin (human plasma clot), sequence (P02675 45-491, chain 2 of 3): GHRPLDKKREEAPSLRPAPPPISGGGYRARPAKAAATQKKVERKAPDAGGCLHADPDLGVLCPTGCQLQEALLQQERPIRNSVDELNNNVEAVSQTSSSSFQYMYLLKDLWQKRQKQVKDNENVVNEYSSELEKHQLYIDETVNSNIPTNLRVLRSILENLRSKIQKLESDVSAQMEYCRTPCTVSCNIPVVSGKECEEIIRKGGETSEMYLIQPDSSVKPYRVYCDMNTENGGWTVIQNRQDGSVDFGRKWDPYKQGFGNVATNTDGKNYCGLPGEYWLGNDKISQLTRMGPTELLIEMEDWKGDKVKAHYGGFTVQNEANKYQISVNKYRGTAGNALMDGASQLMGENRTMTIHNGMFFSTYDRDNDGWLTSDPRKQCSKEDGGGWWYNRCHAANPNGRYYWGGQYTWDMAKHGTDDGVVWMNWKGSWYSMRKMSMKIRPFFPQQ
Fibrin (human plasma clot), sequence (P02679 other isoform, or with tags, fused parts or gaps, chain 3 of 3): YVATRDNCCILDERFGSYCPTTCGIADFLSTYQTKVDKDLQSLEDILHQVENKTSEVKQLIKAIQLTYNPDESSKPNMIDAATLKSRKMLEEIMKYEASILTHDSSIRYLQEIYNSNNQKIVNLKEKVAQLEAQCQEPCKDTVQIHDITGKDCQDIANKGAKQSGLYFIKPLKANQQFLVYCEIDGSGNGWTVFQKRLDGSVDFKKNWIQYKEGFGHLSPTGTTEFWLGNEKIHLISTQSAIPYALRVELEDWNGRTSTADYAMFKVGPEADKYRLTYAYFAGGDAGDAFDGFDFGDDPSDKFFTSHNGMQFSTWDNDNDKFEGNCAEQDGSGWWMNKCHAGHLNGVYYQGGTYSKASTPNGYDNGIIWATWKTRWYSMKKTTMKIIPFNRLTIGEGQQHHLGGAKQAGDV

Binder	Kd [nM]
FC69 (ssRNA, 2'-F pyrimidines) RNA: GGGAGAUAAGAAUAAACGCUCAAACAAAUGUGCGCCCUUGGACGAAGUUAACUCGGACGGUUCUUCGACAGGAGGCUCACAACAGGC	14.1

molecular target: T1, Fibrinogen (Homo sapiens, UniProt P02671-2;P02675;P02679-2 P02671-2:20-644,P02675:31-491,P02679-2:27-437); test: filter; moderate fibrinogen affinity; settings: chain copies: 2
T1 sequence (P02671 other isoform, or with tags, fused parts or gaps, chain 1 of 3): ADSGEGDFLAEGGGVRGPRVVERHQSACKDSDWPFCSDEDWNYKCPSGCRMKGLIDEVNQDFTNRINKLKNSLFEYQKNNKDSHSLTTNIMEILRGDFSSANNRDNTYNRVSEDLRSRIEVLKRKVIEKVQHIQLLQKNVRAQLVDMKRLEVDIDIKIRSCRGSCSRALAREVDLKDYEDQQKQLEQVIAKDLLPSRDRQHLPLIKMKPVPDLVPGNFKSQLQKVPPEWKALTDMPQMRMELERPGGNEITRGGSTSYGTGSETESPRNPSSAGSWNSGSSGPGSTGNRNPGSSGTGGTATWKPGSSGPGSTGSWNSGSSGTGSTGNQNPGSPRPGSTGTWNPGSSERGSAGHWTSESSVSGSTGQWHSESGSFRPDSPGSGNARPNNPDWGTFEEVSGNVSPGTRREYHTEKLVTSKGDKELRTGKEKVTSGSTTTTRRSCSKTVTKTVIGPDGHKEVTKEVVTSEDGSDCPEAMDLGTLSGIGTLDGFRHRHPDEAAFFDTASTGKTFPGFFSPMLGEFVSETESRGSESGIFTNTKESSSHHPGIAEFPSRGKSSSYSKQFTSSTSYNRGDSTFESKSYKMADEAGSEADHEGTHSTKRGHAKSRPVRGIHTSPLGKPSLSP
T1 sequence (P02675 31-491, chain 2 of 3): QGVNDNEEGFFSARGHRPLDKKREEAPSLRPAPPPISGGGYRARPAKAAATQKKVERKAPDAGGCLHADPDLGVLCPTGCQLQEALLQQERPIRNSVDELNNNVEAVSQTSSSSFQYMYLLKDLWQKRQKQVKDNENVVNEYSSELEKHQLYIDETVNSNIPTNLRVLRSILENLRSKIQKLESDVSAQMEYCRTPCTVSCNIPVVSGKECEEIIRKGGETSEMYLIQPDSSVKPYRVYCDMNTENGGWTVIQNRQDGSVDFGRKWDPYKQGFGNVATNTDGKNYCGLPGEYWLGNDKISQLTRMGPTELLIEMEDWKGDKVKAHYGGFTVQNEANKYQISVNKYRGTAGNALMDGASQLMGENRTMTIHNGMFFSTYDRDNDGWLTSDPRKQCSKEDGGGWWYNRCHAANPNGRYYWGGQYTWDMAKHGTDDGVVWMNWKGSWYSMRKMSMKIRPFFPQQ
T1 sequence (P02679 other isoform, or with tags, fused parts or gaps, chain 3 of 3): as the sequence (P02679 other isoform, or with tags, fused parts or gaps, chain 3 of 3) above

Binder	binding result
FCN48 (ssRNA, 2'-F pyrimidines) RNA: GGGAGAUAAGAAUAAACGCUCAAGAUAUACUAACUUUGUUUGAAAGCCAAAAGUAUUAAUGCGUUCGACAGGAGGCUCACAACAGGC	binds
FCN36 (ssRNA, 2'-F pyrimidines) RNA: GGGAGAUAAGAAUAAACGCUCAAAGCAGAUGGUGCUGAGGUAUCAUGAAGACGCUGACGCUUAUUCGACAGGAGGCUCACAACAGGC	binds
FCN24 (ssRNA, 2'-F pyrimidines) RNA: GGGAGAUAAGAAUAAACGCUCAAAUGAGUAGACCGAGGAAGCACCCGGCUCUCAAAUGAGUGAUUCGACAGGAGGCUCACAACAGGC	binds
FCN64 (ssRNA, 2'-F pyrimidines) RNA: GGGAGAUAAGAAUAAACGCUCAAAUGAGUAGACCGAGGAAGCACCCGGCUCUCAAAUGACUGAUUCGACAGGAGGCUCACAACAGGC	binds
FCN31 (ssRNA, 2'-F pyrimidines) RNA: GGGAGAUAAGAAUAAACGCUCAAUCUGUUGGUUCAAAGACUUGCUAAGGGGUCGAAGCACCCUUUCGACAGGAGGCUCACAACAGGC	binds
FCN50 (ssRNA, 2'-F pyrimidines) RNA: GGGAGAUAAGAAUAAACGCUCAAGAAUGGAGCCAGGAAAGACAGCGAUGUCUCGGACGAUGAGUUCGACAGGAGGCUCACAACAGGC	binds

molecular target: T1, Fibrinogen; test: filter; low class; printed l mM, probably uM; settings: chain copies: 2

Binder	Kd [nM]
FCN18 (ssRNA, 2'-F pyrimidines) RNA: GGGAGAUAAGAAUAAACGCUCAAAUGAACGACCGCGGGCAGUCGCGUUCAAAUGAGUGGUUUUUUCGACAGGAGGCUCACAACAGGC	> 1000
FCN69 (ssRNA, 2'-F pyrimidines) RNA: GGGAGAUAAGAAUAAACGCUCAAGAUUGACACGCACUCCAAUGGCUCUGAAGUGUUCGUGUGCUUCGACAGGAGGCUCACAACAGGC	> 1000
FCN12 (ssRNA, 2'-F pyrimidines) RNA: GGGAGAUAAGAAUAAACGCUCAAAGAGAGGAACUGCGAUUCAGACCAAAACGGAAAUGGCUGUUUCGACAGGAGGCUCACAACAGGC	> 1000
FCN25 (ssRNA, 2'-F pyrimidines) RNA: GGGAGAUAAGAAUAAACGCUCAAGAUAUACUAACUUUCUUUGAAAGCCAAAAGUAUUAAUGCGUUCGACAGGAGGCUCACAACAGGC	> 1000
FC34 (ssRNA, 2'-F pyrimidines) RNA: GGGAGAUAAGAAUAAACGCUCAAAAGGCCGAACAACGAAGUUUGAUUCAGGUACUCAGCGUUCUUCGACAGGAGGCUCACAACAGGC	> 1000
FCN27 (ssRNA, 2'-F pyrimidines) RNA: GGGAGAUAAGAAUAAACGCUCAAAAAGUCGUGUGCGAGAGGCUCAGAUUUAAUGCGGAGGAUUCGACAGGAGGCUCACAACAGGC	> 1000
FCN6 (ssRNA, 2'-F pyrimidines) RNA: GGGAGAUAAGAAUAAACGCUCAACAACGAUUAUCUUUUCGGCCGUGAAACCCAAACUGACGCCUUCGACAGGAGGCUCACAACAGGC	> 1000
FCN49 (ssRNA, 2'-F pyrimidines) RNA: GGGAGAUAAGAAUAAACGCUCAAGAAUGGAGCCAAGAAAGACAGCGAUGUCUCGGACGAUGAGUUCGACAGGAGGCUCACAACAGGC	> 1000
FCN58 (ssRNA, 2'-F pyrimidines) RNA: GGGAGAUAAGAAUAAACGCUCAAGGAUGGAGCCAAGAAAGACAGCGAUGUCUCGGACGAUGAGUUCGACAGGAGGCUCACAACAGGC	> 1000
FCN59 (ssRNA, 2'-F pyrimidines) RNA: GGGAGAUAAGAAUAAACGCUCAAAUGAUGCUCCUGAAGUAAUCACCAGGACAUCCUCGGCAUUUCGACAGGAGGCUCACAACAGGC	> 1000
FCN56 (ssRNA, 2'-F pyrimidines) RNA: GGGAGAUAAGAAUAAACGCUCAACGGCUCGAUGCUAGCUGGGACGGCUCAUUGAGACUGGUUGUUCGACAGGAGGCUCACAACAGGC	> 1000
FCN21 (ssRNA, 2'-F pyrimidines) RNA: GGGAGAUAAGAAUAAACGCUCAAAGUUUGGAUUCGGCAGGUGCUGAGACUUUGAUAGCCACUAUUCGACAGGAGGCUCACAACAGGC	> 1000
FCN22 (ssRNA, 2'-F pyrimidines) RNA: GGGAGAUAAGAAUAAACGCUCAAGUGAGAAAUGUCGGGGGCGAUGACUUGGACGGUCCACCGUUCGACAGGAGGCUCACAACAGGC	> 1000
FCN54 (ssRNA, 2'-F pyrimidines) RNA: GGGAGAUAAGAAUAAACGCUCAACUGGGCUCAUCCGGCGAAUGAUGCAAGGAAGAUUUCACAUUUCGACAGGAGGCUCACAACAGGC	> 1000
FCN52 (ssRNA, 2'-F pyrimidines) RNA: GGGAGAUAAGAAUAAACGCUCAAAGCCGAGCUAAUCCCGAAAGUGACCCGGAACGACGCGGCAUUCGACAGGAGGCUCACAACAGGC	> 1000
FCN13 (ssRNA, 2'-F pyrimidines) RNA: GGGAGAUAAGAAUAAACGCUCAACGUGAUGACAGCUCGGACGGCUCAUUGCGCGGAGUAGCUAUUCGACAGGAGGCUCACAACAGGC	> 1000
FC9 (ssRNA, 2'-F pyrimidines) RNA: GGGAGAUAAGAAUAAACGCUCAAGCAAUCUCGGACUAGACCAACGACCUUCGUUUGACGCUCAUUCGACAGGAGGCUCACAACAGGC	> 1000
FCN9 (ssRNA, 2'-F pyrimidines) RNA: GGGAGAUAAGAAUAAACGCUCAACGUUGAAAUCGCUCCUCAGUGUGAGUUGAAUCAGCUGACCUUCGACAGGAGGCUCACAACAGGC	> 1000

molecular target: T1, Fibrinogen; test: filter; high class; printed l mM, probably uM; settings: chain copies: 2

Binder	Kd [nM]
FC14 (ssRNA, 2'-F pyrimidines) RNA: GGGAGAUAAGAAUAAACGCUCAAGUGUUGGAGCUCUUGAUUGGAAAAGUAGAACAAAUCGAAAUUCGACAGGAGGCUCACAACAGGC	< 1000
FC70 (ssRNA, 2'-F pyrimidines) RNA: GGGAGAUAAGAAUAAACGCUCAAGUGUUGGAGCUCUUGAUUGGAAAAGUAGAGCAAAACGAAAUUCGACAGGAGGCUCACAACAGGC	< 1000
FC30 (ssRNA, 2'-F pyrimidines) RNA: GGGAGAUAAGAAUAAACGCUCAAGUGUUGGAGCUCUUGAUUGGAAAAUUAGAGCAAAUCGAAAUUCGACAGGAGGCUCACAACAGGC	< 1000
FC74 (ssRNA, 2'-F pyrimidines) RNA: GGGAGAUAAGAAUAAACGCUCAAGUGUUGGAGCUCUUGAUUGGAAAAGUAGAGCAAAUCGAAAUUCGACAGGAGGCUCACAACAGGC	< 1000
FC10 (ssRNA, 2'-F pyrimidines) RNA: GGGAGAUAAGAAUAAACGCUCAACAGACUCAGAGCGCCGUGAGCUUCUGAAGCAAUCGCAGGUUUCGACAGGAGGCUCACAACAGGC	< 1000
FCN26 (ssRNA, 2'-F pyrimidines) RNA: GGGAGAUAAGAAUAAACGCUCAAUCCAAGGACCAAACGGGUGUUCGGCAGUGGACUUUAGCAAUUCGACAGGAGGCUCACAACAGGC	< 1000
FCN65 (ssRNA, 2'-F pyrimidines) RNA: GGGAGAUAAGAAUAAACGCUCAAAGCGCUAGAUGGACGAGAGACUUUUAAGUAGCAAGCGGUAUUCGACAGGAGGCUCACAACAGGC	< 1000
FCN28 (ssRNA, 2'-F pyrimidines) RNA: GGGAGAUAAGAAUAAACGCUCAAUGGGCUACAUGUGAGUACACCAGCGUGAGAGUUCUUAGGUUCGACAGGAGGCUCACAACAGGC	< 1000
FCN29 (ssRNA, 2'-F pyrimidines) RNA: GGGAGAUAAGAAUAAACGCUCAACUGUGCAGUAACUGCGGAUGAGACCAACCGGAUGGCUCAACUUCGACAGGAGGCUCACAACAGGC	< 1000
FC53 (ssRNA, 2'-F pyrimidines) RNA: GGGAGAUAAGAAUAAACGCUCAAGCGGGGAGCUCCUCGAGAAACUGAGUUCAACUUCCCAGGUUUCGACAGGAGGCUCACAACAGGC	< 1000
FCN57 (ssRNA, 2'-F pyrimidines) RNA: GGGAGAUAAGAAUAAACGCUCAAACAAUCUCGGACUAGACUAACGACCUUCGUUUGACGCUUAUUCGACAGGAGGCUCACAACAGGC	< 1000
FCN61 (ssRNA, 2'-F pyrimidines) RNA: GGGAGAUAAGAAUAAACGCUCAAGCAAUCUCGGACGAGACUAACGACCUUCGUUUGACGCUUAUUCGACAGGAGGCUCACAACAGGC	< 1000
